According to patent publication EP4628508A1 (Biodlink Biopharm Co., Ltd., dated 2025):
Positions count from the first letter of the chain named. Values belong to the binder of their own block, whether it stands above or below them.

Experiments:
human ILT4-ECD protein [1] = molecular target: T1, human ILT4-ECD protein (human, UniProt Q8N423 22-460); experiment: BLI (Octet RED96e), antibody on AHC biosensor, HuILT4 at 100/50/25 nM
T1 construct: also called HuILT4; LILRB2 (ILT4)

[2] = molecular target: T2, human ILT4 expressed on the surface of CHO cells (CHO-huILT4) (human, UniProt Q8N423 22-597); experiment: flow cytometry on CHO-huILT4 cells
T2 construct: CHO cells infected with lentivirus lenti-huILT4; also called CHO-ILT4; CHO-huILT4 cells
T2 sequence (Q8N423 other isoform, or with tags, fused parts or gaps limits assumed): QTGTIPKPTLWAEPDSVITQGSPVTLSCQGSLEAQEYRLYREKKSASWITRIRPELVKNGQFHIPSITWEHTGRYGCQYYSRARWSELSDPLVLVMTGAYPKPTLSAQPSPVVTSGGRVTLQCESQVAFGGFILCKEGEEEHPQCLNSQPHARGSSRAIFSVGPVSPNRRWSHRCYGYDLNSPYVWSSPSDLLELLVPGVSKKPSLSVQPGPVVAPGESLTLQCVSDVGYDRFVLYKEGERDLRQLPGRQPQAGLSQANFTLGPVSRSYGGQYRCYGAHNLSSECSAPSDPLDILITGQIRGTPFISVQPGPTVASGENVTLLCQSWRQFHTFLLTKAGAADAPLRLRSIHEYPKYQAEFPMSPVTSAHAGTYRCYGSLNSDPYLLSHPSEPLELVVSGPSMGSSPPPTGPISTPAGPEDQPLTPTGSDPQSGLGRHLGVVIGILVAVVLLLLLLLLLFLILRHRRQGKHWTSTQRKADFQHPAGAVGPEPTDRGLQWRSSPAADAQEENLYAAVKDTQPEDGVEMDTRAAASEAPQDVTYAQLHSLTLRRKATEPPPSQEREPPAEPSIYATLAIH

[3] = molecular target: T3, human LILRB3 (R&D System, Cat: 9159-T5-050) (human, UniProt O75022 24-443); experiment: ELISA, protein coated at 1 µg/mL, antibody at 100 nM, OD450
T3 construct: Bought protein; also called LILRB3 (ILT5); ILT5

[4] = molecular target: T4, human LILRA1 (R&D System, Cat: 9226-T4-050) (human, UniProt O75019 17-461); experiment: as above
T4 construct: Bought protein; also called LILRA1 (LIR6); LIR6
T4 sequence (O75019 17-461 limits assumed): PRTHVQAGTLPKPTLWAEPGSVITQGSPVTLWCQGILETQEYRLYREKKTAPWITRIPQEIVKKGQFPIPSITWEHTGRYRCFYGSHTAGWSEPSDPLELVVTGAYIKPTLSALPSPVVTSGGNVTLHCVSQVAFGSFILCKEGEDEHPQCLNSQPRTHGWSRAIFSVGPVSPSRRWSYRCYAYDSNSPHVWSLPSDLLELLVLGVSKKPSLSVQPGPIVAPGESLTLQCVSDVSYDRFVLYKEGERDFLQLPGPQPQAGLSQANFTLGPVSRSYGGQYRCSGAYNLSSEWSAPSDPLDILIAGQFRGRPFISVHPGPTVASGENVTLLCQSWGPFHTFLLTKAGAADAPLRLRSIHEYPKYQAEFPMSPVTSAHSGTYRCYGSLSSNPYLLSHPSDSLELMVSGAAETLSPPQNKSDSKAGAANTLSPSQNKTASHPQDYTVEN

[5] = molecular target: T5, human LILRA6 (R&D System, Cat: 9088-T4-050) (human, UniProt Q6PI73 24-447); experiment: as above
T5 construct: Bought protein; also called LILRA6 (ILT8); ILT8
T5 sequence (Q6PI73 24-447 limits assumed): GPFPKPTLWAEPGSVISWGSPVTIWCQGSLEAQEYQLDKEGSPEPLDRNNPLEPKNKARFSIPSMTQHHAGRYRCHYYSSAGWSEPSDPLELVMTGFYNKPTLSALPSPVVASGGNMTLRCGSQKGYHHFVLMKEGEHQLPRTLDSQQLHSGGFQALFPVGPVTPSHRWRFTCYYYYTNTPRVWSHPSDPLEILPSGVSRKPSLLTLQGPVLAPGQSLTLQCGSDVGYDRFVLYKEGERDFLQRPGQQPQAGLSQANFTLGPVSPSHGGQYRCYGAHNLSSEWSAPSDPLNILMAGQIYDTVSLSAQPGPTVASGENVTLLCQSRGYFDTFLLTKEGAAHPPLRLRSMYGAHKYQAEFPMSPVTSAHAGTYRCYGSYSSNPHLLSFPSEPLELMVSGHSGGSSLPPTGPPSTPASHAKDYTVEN

human ILT2-ECD protein [6] = molecular target: T6, human ILT2-ECD protein (human, UniProt Q8NHL6 24-461); experiment: as above
T6 construct: also called LILRB1 (ILT2)
T6 sequence (Q8NHL6 24-461 limits assumed): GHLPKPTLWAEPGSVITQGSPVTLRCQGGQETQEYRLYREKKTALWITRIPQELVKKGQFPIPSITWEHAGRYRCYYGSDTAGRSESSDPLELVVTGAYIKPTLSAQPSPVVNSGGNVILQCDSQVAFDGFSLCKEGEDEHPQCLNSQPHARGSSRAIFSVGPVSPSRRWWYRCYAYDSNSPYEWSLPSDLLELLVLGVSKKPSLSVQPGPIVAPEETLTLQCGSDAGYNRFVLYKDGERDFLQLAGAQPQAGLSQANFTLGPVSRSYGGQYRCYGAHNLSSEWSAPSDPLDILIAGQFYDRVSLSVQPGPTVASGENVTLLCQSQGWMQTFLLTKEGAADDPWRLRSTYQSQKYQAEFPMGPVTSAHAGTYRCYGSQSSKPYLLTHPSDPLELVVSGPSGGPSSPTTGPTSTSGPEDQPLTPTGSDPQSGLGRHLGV

[7] = molecular target: T7, human LILRA4 (R&D System, Cat: 8914-T4-050) (human, UniProt P59901 24-446); experiment: as above
T7 construct: Bought protein; also called LILRA4 (ILT7); ILT7
T7 sequence (P59901 24-446 limits assumed): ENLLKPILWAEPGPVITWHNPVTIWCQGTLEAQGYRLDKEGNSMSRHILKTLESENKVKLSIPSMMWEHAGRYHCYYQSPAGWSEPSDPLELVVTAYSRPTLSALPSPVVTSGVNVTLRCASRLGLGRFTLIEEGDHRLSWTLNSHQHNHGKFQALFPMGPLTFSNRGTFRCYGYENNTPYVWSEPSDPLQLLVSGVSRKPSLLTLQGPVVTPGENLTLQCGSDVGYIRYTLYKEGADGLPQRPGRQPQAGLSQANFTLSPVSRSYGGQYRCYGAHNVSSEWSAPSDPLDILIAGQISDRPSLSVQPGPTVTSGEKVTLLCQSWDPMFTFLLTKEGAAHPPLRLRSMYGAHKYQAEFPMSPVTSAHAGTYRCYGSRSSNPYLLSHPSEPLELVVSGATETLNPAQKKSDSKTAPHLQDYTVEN

human ILT2-ECD protein [8] = molecular target: T6, human ILT2-ECD protein; experiment: ELISA, human ILT2-ECD coated at 1 µg/mL
[9] = molecular target: T8, human LILRA3 (R&D System, Cat: 9517-T4-100) (human, UniProt Q8N6C8 24-439); experiment: ELISA, protein coated at 1 µg/mL, antibody at 100 nM, OD450
T8 construct: Bought protein; also called LILRA3 (LIR4)
T8 sequence (Q8N6C8 24-439 limits assumed): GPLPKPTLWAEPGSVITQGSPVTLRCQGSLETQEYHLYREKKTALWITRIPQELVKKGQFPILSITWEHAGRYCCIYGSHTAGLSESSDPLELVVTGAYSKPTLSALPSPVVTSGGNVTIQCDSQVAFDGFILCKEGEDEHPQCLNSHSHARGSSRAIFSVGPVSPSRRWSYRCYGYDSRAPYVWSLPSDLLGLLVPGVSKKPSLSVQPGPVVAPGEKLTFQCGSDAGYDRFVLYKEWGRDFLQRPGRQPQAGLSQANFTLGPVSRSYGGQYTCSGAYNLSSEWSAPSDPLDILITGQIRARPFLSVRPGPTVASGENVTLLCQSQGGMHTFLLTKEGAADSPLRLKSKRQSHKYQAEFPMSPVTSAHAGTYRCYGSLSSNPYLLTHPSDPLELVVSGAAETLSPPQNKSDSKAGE

human ILT4-ECD protein [10] = molecular target: T1, human ILT4-ECD protein; experiment: as above

T1 sequence (Q8N423 other isoform, or with tags, fused parts or gaps limits assumed): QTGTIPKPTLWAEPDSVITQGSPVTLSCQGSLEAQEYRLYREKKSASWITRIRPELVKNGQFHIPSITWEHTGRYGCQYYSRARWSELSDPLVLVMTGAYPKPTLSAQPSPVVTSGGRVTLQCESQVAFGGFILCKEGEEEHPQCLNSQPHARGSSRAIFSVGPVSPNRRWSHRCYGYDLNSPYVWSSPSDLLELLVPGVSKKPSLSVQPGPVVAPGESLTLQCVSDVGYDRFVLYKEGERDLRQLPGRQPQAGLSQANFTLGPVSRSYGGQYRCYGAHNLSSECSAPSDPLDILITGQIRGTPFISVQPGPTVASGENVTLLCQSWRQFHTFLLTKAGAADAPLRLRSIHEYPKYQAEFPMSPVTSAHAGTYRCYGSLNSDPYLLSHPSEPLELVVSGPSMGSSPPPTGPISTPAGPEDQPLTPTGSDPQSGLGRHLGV

Kd (human ILT4-ECD protein [1]): 0.256 nM
kon (human ILT4-ECD protein [1]): 915000 M⁻¹ s⁻¹
EC50 [2]: 1.05 nM
B1: PR302951 (antibody, human IgG1, kappa, V domains shown)
VH: EVQLLESGGGLVQPGGSLRLSCAASRFTFSTYAMSWVRQAPGKGLEWVSSISGSGFNTYYADSVKGRFTISSDSSKNTLYLQMNSLRAEDTAVYYCAKDRQWLVSSFDYWGQGTLVTVSS
VL: DIQMTQSPSSLSASVGDRVTITCQASQDISNYLNWYQQKPGKAPKLLIYDASNLETGVPSRFSGSGSGTDFTFTISSLQPEDIATYYCQQYDNLITFGQGTRLEIKR
notes: IgG1; also called PR302951 (IgG1)

EC50 [2]: 1.58 nM
B2: PR302702 (antibody, human IgG1, kappa, V domains shown)
VH: B1 VH with R26G, S35T, G55D, S72R, S74I, R100Q, Q101E, S105R, D108H, Y109H
VL: DIQMTQFPSSLFAFVGDRVTITCQASQDISNYLNWYQQKAGKAPKLLINDASNLETGVPSRFSGSGFGTDFTFTISSLQPEDFATYYCQQYENLPTFGGGTKVEIKR
notes: IgG1; also called PR302702 (IgG1)

Kd (human ILT4-ECD protein [1]): 0.124 nM
kon (human ILT4-ECD protein [1]): 648000 M⁻¹ s⁻¹
B3: PR302282 (antibody, human IgG1, kappa, V domains shown)
VH: QVQLVESGGTVVQSGRSLRLSCAASGFTFSSYGMHWVRQAPGKGLEWVAGMWYDGNYKYYADSVKGRFTISRDNSKNTLSLQMNSLRAEDTAVYYCARDSPIGVFDYWGQGTLVTVSS
VL: B1 VL
notes: IgG1; also called PR302282 (IgG1)

Kd (human ILT4-ECD protein [1]): 0.454 nM
kon (human ILT4-ECD protein [1]): 985000 M⁻¹ s⁻¹
EC50 [2]: 0.822 nM
B4: PR302949 (antibody, human IgG1, kappa, V domains shown)
VH: B1 VH with R26G, T31S, G55D, N57S, S72R, S74T, Y109F, T114A
VL: B1 VL
notes: IgG1; also called PR302949 (IgG1)

EC50 [2]: 1.07 nM
B5: PR301366 (antibody, V domains shown)
VH: EVQLLESGGGLVQPGGSLRLSCAASGFTFSNYAMNWVRQAPGKGLEWVSVISVSGGSTYYADSVKGRFTISRDNSKNTLYLQMNSLRAEDTAVYYCAKDYYYDSGSYYDSFFDYWGQGTLVTVSS
VL: not shown
notes: also called control antibody PR301366 (Five Prime: WO2020014132)

Kd (human ILT4-ECD protein [1]): < 0.001 nM
kon (human ILT4-ECD protein [1]): 773000 M⁻¹ s⁻¹
B6: PR302259 (antibody, human IgG1, kappa, V domains shown)
VH: EVQLLESGGGLVQPGGSLRLSCAVSGFTFSSYAMSWVRQAPGKGLEWVSAISDNAGSTYYADSVKGRFTISRDNSKNTLHLQMNSLRAEDTAVYSCAKERQWLVLGVMDAWGQGASVTVSS
VL: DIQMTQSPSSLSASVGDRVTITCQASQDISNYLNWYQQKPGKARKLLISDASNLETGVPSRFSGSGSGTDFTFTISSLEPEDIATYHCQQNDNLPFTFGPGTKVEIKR
notes: IgG1; also called PR302259 (IgG1)

Kd (human ILT4-ECD protein [1]): 0.458 nM
kon (human ILT4-ECD protein [1]): 694000 M⁻¹ s⁻¹
EC50 [2]: 1.13 nM
binding result [3]: binds
binding result [4]: binds
binding result [5]: binds
binding result (human ILT2-ECD protein [6]): binds
binding result [7]: binds
B7: PR302934 (antibody, human IgG1, kappa, V domains shown)
VH: QVQLQQWGAGLLKPSETLSLTCAVYGGSFSGYYWSWIRQTLGKGLEWIGEVSHSGGTNYNPSLKSRVTISVDTSKNQFSLKLSSVTAADTAVYYCARSPYYGDYMYVFDIWGQGTMVTVSS
VL: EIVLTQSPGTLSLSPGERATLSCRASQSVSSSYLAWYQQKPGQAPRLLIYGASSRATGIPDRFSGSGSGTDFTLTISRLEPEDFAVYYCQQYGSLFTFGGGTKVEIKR
notes: IgG1; also called PR302934 (IgG1)

Kd (human ILT4-ECD protein [1]): 0.984 nM
kon (human ILT4-ECD protein [1]): 520000 M⁻¹ s⁻¹
B8: PR302261 (antibody, human IgG1, kappa, V domains shown)
VH: EVQLLESGGGLVQSGGSLRLSCAASGFTFSSYAMSWVRQAPGKGLGWVSTISGSGGSAYYADSVKGRFTVSRDNSKKTLYLQMNSLRAEDTAVYFCAILSGDDAFDIWGQGTMVTVSS
VL: DVVMTQSPLSLPVTPGEPASISCRSSQSLLRGNGYNYLDWYLQKPGQSPQLLIYLGSNRASGVPDRFSGSGSGTDFTLKISRVEAEDVGIFYCMQALQSPLTFGGGTKVEIKR
notes: IgG1; also called PR302261 (IgG1)

Kd (human ILT4-ECD protein [1]): 0.0767 nM
kon (human ILT4-ECD protein [1]): 472000 M⁻¹ s⁻¹
binding result [4]: binds
binding result (human ILT2-ECD protein [6]): binds
B9: PR302264-2 (antibody, human IgG4 S228P, kappa, V domains shown)
VH: QVQLQQWGAGLLKPSETLSLTCAVYGGSLSGYYWSWIRQPPGKGLEWIGEIAHSGGTNYNPSLKSRVTISVPTSKNQFSLKLTSVTAADTAVYYCARGQQQLDWYFDLWGRGTLVTVSS
VL: EIVMTQSPATLSVSPGERATLSCRASQNIYSHLVWYQQKPGQAPRLLIYGASTRATGIPARFSGSGSGTEFTLTITSLQSEDFTVYYCQQYNDWPPITFGQGTRLEIRR
notes: PTM variant of PR302264, IgG4; also called PR302264-2 (IgG4)

Kd (human ILT4-ECD protein [1]): 0.242 nM
kon (human ILT4-ECD protein [1]): 462000 M⁻¹ s⁻¹
B10: PR302264 (antibody, human IgG1, kappa, V domains shown)
VH: B9 VH with A52N
VL: B9 VL
notes: IgG1; also called PR302264 (IgG1)

Kd (human ILT4-ECD protein [1]): 0.351 nM
kon (human ILT4-ECD protein [1]): 454000 M⁻¹ s⁻¹
binding result (human ILT2-ECD protein [8]): binds
B11: PR302264-3 (antibody, human IgG4 S228P, kappa, V domains shown)
VH: B9 VH with A52T
VL: B9 VL
notes: PTM variant of PR302264, IgG4; also called PR302264-3 (IgG4)

Kd (human ILT4-ECD protein [1]): 0.884 nM
kon (human ILT4-ECD protein [1]): 980000 M⁻¹ s⁻¹
EC50 [2]: 0.805 nM
B12: PR302927 (antibody, human IgG1, kappa, V domains shown)
VH: EVQLLESGGGLVQPGGSLRLSCAASGFTFSSYAMSWVRQAPGKGLEWVSTINHIGDSTYYADSVKGRFTISRDNSKNTLYLQMNSLRAEDTAVYYCAKDQWFGVFDYWGQGTLVTVSS
VL: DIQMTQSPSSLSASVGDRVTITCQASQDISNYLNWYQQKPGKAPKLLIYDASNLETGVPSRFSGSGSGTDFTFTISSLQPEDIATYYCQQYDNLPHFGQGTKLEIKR
notes: IgG1; also called PR302927 (IgG1)

Kd (human ILT4-ECD protein [1]): 3.52 nM
kon (human ILT4-ECD protein [1]): 431000 M⁻¹ s⁻¹
B13: PR001795 (antibody, V domains shown)
VH: EVQLQQWGAGLLKPSETLSLTCAVYGGSFSGYYWSWIRQPPGKGLEWIGEINHAGSTNYNPSLKSRVTISVDTSKNQFSLKLSSVTAADTAVYYCARLPTRWVTTRYFDLWGRGTLVTVSS
VL: ESVLTQPPSVSGAPGQRVTISCTGSSSNIGAGYDVHWYQQLPGTAPKLLIYGDSNRPSGVPDRFSVSKSGASASLAITGLQAEDEADYYCQSFDNSLSAYVFGGGTQLTVL
notes: also called control antibody PR001795 (Merck: US20180298096); MK-4830

EC50 [2]: 1.09 nM
B14: PR302950 (antibody, human IgG1, kappa, V domains shown)
VH: QVQLQESGPGLVKPSGTLSLTCAVSGGSISSSNWWSWVRQPPGKGLEWIGEVYHSGSTNYNPSLKSRVTISVDKSQNQFSLKLTSVTAADTAVYYCARVTGNKDYYYYDLDVWGQGTTVTVSS
VL: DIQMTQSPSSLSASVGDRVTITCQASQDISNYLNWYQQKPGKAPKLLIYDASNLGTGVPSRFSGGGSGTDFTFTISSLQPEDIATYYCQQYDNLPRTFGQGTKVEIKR
notes: IgG1; also called PR302950 (IgG1)

binding result [9]: binds
binding result [4]: binds
binding result (human ILT4-ECD protein [10]): binds
binding result (human ILT2-ECD protein [6]): binds
B15: PR304683 (antibody, V domains shown)
VH: QVQLVQSGAEVKKPGASVKVSCKASGYTFTDYYINWVRQAPGQGLEWMGNVNPNDGGTTYNQKFKGRVTMTTDTSTSTAYMELRSLRSDDTAVYYCARREIYFYGTIYYYAMDYWGQGTLVTVSS
VL: DIQLTQSPSFLSASVGDRVTITCRASESVDYYGNSFMYWYQQKPGKAPKLLIYFASNLESGVPSRFSGSGSGTEFTLTISSLQPEDFATYYCQQNNEDPWTFGGGTKVEIK
notes: also called Control antibody PR304683 (NGM: WO2021127200); NGM707
